Among the data in patent publication US20050032696A1 are MEF2C-mediated transcriptional activation of the hTnIslow USE (luciferase reporter, co-transfected C2C12 cells) values, retold here.

The target of this assay is MEF2C (pcDNAMEF2C, mouse MEF2C cDNA) (mouse) (UniProt Q8CFN5). Briefly: cell-based or functional assay.
MEF2C (pcDNAMEF2C, mouse MEF2C cDNA) (mouse), sequence (Q8CFN5 whole entry): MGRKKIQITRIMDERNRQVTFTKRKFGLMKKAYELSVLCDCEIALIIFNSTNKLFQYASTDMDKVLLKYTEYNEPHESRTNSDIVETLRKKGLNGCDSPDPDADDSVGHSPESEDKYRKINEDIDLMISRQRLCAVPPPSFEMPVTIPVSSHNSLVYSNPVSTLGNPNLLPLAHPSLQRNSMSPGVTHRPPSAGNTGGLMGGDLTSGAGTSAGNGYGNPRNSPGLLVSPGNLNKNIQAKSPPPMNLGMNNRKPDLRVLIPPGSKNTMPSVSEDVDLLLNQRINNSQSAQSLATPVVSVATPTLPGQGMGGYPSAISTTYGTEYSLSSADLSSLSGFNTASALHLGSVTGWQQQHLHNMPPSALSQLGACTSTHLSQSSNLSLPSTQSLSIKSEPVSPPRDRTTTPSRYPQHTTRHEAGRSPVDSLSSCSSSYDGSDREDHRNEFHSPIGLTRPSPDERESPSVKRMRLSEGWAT

The substance “hMusTRD1α1944aa (pcDNA3.1hMusTRD1α1944aamyc/his) (from UniProt Q9UHL9 1-959)” showed an MEF2C-mediated transcriptional activation of the hTnIslow USE (luciferase reporter, co-transfected C2C12 cells) of 3 fold.
